Drawing on patent US20110200608A1, this text covers IC50 (read off the curve) for 1 substance.

For this test, the target named is high molecular weight-melanoma associated antigen (HMW-MAA), human (human) (UniProt Q6UVK1). Description: competition cell ELISA on HMW-MAA+ SK-MEL-28 cells, 1 h at 4 °C, SA-HRP; competitor: biotinylated scFv C21 (0.25 µg/well); axis gives µg of mAb, not a concentration. On the technique in general: An ELISA detects its analyte on a solid surface through an enzyme-linked reagent.
Sequence of high molecular weight-melanoma associated antigen (HMW-MAA), human (human) (Q6UVK1 30-2322): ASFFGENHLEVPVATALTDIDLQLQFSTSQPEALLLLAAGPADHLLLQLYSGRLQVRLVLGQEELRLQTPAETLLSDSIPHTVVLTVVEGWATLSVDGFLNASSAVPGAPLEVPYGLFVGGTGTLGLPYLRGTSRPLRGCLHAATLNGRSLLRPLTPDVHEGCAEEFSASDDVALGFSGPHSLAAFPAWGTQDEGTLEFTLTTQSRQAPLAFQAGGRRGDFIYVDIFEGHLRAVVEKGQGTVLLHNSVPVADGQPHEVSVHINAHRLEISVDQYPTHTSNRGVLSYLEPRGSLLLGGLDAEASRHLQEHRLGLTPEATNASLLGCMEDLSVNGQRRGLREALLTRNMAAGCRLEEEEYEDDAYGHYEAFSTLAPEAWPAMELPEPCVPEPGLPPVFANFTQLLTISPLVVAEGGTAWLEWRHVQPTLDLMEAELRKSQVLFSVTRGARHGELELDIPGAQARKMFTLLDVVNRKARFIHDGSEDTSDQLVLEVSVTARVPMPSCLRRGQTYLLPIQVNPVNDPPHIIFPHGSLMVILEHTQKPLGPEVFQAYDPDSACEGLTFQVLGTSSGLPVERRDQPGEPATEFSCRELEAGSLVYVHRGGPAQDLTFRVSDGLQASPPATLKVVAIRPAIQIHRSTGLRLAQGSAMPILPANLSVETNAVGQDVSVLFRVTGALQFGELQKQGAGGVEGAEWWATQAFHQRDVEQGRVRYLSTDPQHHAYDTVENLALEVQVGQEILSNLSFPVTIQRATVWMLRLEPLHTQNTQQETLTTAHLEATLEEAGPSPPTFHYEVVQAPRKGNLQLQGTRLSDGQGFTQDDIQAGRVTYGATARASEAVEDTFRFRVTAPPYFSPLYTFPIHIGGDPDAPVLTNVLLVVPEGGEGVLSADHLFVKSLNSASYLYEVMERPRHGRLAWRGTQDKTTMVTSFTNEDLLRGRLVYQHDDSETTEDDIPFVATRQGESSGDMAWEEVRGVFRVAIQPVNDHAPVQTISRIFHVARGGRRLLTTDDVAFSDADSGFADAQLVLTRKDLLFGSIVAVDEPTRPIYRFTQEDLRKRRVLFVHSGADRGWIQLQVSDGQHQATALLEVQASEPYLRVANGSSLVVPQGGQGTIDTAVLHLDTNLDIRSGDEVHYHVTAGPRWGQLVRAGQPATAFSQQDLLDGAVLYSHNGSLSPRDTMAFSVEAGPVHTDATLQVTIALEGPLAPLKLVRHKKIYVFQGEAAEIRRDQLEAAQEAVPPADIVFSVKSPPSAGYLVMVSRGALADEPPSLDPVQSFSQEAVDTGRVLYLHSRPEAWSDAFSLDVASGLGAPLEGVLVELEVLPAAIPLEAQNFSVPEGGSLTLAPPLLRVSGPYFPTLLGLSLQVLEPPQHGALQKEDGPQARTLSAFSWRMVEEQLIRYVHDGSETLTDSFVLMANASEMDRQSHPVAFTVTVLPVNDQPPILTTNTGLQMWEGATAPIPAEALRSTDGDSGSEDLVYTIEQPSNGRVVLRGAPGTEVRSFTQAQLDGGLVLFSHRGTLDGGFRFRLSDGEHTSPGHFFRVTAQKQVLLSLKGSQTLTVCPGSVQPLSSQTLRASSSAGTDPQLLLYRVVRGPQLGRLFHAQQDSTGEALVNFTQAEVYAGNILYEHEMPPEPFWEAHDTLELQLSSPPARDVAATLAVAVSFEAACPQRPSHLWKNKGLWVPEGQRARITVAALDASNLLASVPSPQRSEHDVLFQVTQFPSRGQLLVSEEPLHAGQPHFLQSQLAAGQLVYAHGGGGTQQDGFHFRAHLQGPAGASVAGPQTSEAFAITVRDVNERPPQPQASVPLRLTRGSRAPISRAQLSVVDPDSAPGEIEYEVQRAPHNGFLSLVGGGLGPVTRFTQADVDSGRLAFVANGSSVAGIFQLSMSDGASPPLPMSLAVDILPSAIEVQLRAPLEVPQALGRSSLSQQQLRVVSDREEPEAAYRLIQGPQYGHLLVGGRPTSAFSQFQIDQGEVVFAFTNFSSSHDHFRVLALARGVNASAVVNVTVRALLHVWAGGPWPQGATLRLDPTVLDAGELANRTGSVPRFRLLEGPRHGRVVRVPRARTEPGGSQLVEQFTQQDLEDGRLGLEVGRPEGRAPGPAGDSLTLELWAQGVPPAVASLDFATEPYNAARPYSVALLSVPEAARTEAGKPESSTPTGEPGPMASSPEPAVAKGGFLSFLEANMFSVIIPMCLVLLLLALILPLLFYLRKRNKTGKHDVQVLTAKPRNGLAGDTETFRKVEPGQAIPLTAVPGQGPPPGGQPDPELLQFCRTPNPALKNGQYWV

Take “HMW-MAA-specific mouse mAb VF1-TP34 (antibody)”: the IC50 (read off the curve) is 0.03 µg.
